The values that follow come from the supplement of paper PMC10567573.

B1: PTPN9 (parent)
chain: TQHLPRECLPENLGGYVKIDLATW
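Note: lentivirally expressed fusions sorted by FACS into six bins by GFP to DsRed ratio, PSI derived from sequencing read proportions per bin multiplied by bin number.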

Variants of B1 are the subject of the series. Nature of the series: protein stability index of a GFP-peptide fusion (GPS, HEK-293T) (PSI 1-6); higher = more stable. Particulars: c terminus: a fixed tail appended.
For the variant TWHLPRECLPENLGGYVKIDLATW, the protein stability index is 1.49. Turning to TLHLPRECLPENLGGYVKIDLATW, the protein stability index stood at 2.17. The figure for TTHLPRECLPENLGGYVKIDLATW is 1.99; for TPHLPRECLPENLGGYVKIDLATW it is 2.02. Under TCHLPRECLPENLGGYVKIDLATW stands 2.11. The figure for TIHLPRECLPENLGGYVKIDLATW is 1.96. Regarding TKHLPRECLPENLGGYVKIDLATW, the protein stability index stood at 1.86. In the case of THHLPRECLPENLGGYVKIDLATW, the protein stability index was found to be 1.52.

With TVHLPRECLPENLGGYVKIDLATW, the protein stability index is 1.66. Under TYHLPRECLPENLGGYVKIDLATW stands 2.48.

TRHLPRECLPENLGGYVKIDLATW: the protein stability index was 1.76. Under TDHLPRECLPENLGGYVKIDLATW stands 2.02. Under TSHLPRECLPENLGGYVKIDLATW stands 1.73; under TGHLPRECLPENLGGYVKIDLATW, 2.5; under TEHLPRECLPENLGGYVKIDLATW, 2.08. The figure for TFHLPRECLPENLGGYVKIDLATW is 1.31; for TAHLPRECLPENLGGYVKIDLATW it is 1.84; for TMHLPRECLPENLGGYVKIDLATW it is 1.47. As to TNHLPRECLPENLGGYVKIDLATW, the protein stability index was 2.05. Regarding YQHLPRECLPENLGGYVKIDLATW, the protein stability index is 2.31. Under IQHLPRECLPENLGGYVKIDLATW stands 1.72; under KQHLPRECLPENLGGYVKIDLATW, 1.88. The figure for CQHLPRECLPENLGGYVKIDLATW is 1.51; for DQHLPRECLPENLGGYVKIDLATW it is 2.51; for FQHLPRECLPENLGGYVKIDLATW it is 2.14.

For AQHLPRECLPENLGGYVKIDLATW, the protein stability index was 2.06. The figure for RQHLPRECLPENLGGYVKIDLATW is 2.1; for QQHLPRECLPENLGGYVKIDLATW it is 2.05. With LQHLPRECLPENLGGYVKIDLATW, the protein stability index is 1.67. Turning to PQHLPRECLPENLGGYVKIDLATW, the protein stability index was determined as 2.07.

As to EQHLPRECLPENLGGYVKIDLATW, the protein stability index was 2.06. Under HQHLPRECLPENLGGYVKIDLATW stands 2.07. With SQHLPRECLPENLGGYVKIDLATW, the protein stability index is 2.11. The figure for WQHLPRECLPENLGGYVKIDLATW is 2.54; for MQHLPRECLPENLGGYVKIDLATW it is 1.57. The figure for VQHLPRECLPENLGGYVKIDLATW is 1.74. Under NQHLPRECLPENLGGYVKIDLATW stands 2.18. Turning to GQHLPRECLPENLGGYVKIDLATW, the protein stability index worked out at 2.15. Under TQHLPRACLPENLGGYVKIDLATW stands 1.82; under TQHLPRCCLPENLGGYVKIDLATW, 2.49. TQHLQRECLPENLGGYVKIDLATW: the protein stability index was 1.66. Under TQHLCRECLPENLGGYVKIDLATW stands 1.77; under TQHLERECLPENLGGYVKIDLATW, 2.6.

Turning to TQHLGRECLPENLGGYVKIDLATW, the protein stability index came out at 1.73. The figure for TQHLIRECLPENLGGYVKIDLATW is 2.88; for TQHLSRECLPENLGGYVKIDLATW it is 1.89.

Turning to TQHLVRECLPENLGGYVKIDLATW, the protein stability index was 1.57. Under TQHLMRECLPENLGGYVKIDLATW stands 1.53; under TQHLRRECLPENLGGYVKIDLATW, 2.45. Under TQHLLRECLPENLGGYVKIDLATW stands 2.83; under TQHLKRECLPENLGGYVKIDLATW, 2.68. The figure for TQHLNRECLPENLGGYVKIDLATW is 2.04. For the variant TQHLTRECLPENLGGYVKIDLATW, the protein stability index was 1.92. The figure for TQHLWRECLPENLGGYVKIDLATW is 2.33.

TQHLARECLPENLGGYVKIDLATW: the protein stability index worked out at 2.18. Under TQHLHRECLPENLGGYVKIDLATW stands 1.95. Under TQHLYRECLPENLGGYVKIDLATW stands 1.64.

On to TQHLFRECLPENLGGYVKIDLATW, for which the protein stability index turned out to be 1.82. The figure for TQHLDRECLPENLGGYVKIDLATW is 2.26; for TQHSPRECLPENLGGYVKIDLATW it is 1.8; for TQHQPRECLPENLGGYVKIDLATW it is 2.82. Under TQHMPRECLPENLGGYVKIDLATW stands 2.38.

In the case of TQHKPRECLPENLGGYVKIDLATW, the protein stability index worked out at 2.1. The figure for TQHAPRECLPENLGGYVKIDLATW is 1.8. In the case of TQHGPRECLPENLGGYVKIDLATW, the protein stability index was found to be 1.96. Under TQHHPRECLPENLGGYVKIDLATW stands 2.53; under TQHRPRECLPENLGGYVKIDLATW, 2.04; under TQHVPRECLPENLGGYVKIDLATW, 1.96.

With TQHNPRECLPENLGGYVKIDLATW, the protein stability index came to 2. For TQHYPRECLPENLGGYVKIDLATW, the protein stability index amounted to 1.99. Under TQHFPRECLPENLGGYVKIDLATW stands 2.06; under TQHEPRECLPENLGGYVKIDLATW, 2.46; under TQHCPRECLPENLGGYVKIDLATW, 2.43. Turning to TQHDPRECLPENLGGYVKIDLATW, the protein stability index is 2.31. The figure for TQHIPRECLPENLGGYVKIDLATW is 1.86. The figure for TQHTPRECLPENLGGYVKIDLATW is 1.98; for TQHPPRECLPENLGGYVKIDLATW it is 2.5. Under TQHWPRECLPENLGGYVKIDLATW stands 2.14.

With TQHLPEECLPENLGGYVKIDLATW, the protein stability index was 2.27. Take TQHLPCECLPENLGGYVKIDLATW: the protein stability index was 1.69.

Consider TQHLPKECLPENLGGYVKIDLATW, for which the protein stability index was 2.2. Under TQHLPFECLPENLGGYVKIDLATW stands 1.81.

As to TQHLPYECLPENLGGYVKIDLATW, the protein stability index is 1.69. Take TQHLPNECLPENLGGYVKIDLATW: the protein stability index worked out at 1.98. Under TQHLPTECLPENLGGYVKIDLATW stands 2.2; under TQHLPGECLPENLGGYVKIDLATW, 2.51. As for TQHLPWECLPENLGGYVKIDLATW, the protein stability index was determined as 1.57. Under TQHLPLECLPENLGGYVKIDLATW stands 1.49; under TQHLPHECLPENLGGYVKIDLATW, 1.63. With TQHLPVECLPENLGGYVKIDLATW, the protein stability index was 2.26. The figure for TQHLPSECLPENLGGYVKIDLATW is 2.18; for TQHLPPECLPENLGGYVKIDLATW it is 2.24; for TQHLPDECLPENLGGYVKIDLATW it is 2.52. The figure for TQHLPIECLPENLGGYVKIDLATW is 1.99.
